This experiment deals with Namalwa cells. The experiment is described as follows: Indirect fluorescent antibody staining (FACS) of transformed Namalwa cells. The class given is cell-based, human. The following applies: FIG. 1. The protocol: The plasmids were dissolved in 10 μl of TE buffer. Then each of the plasmids was introduced into Namalwa cells by electroporation method [Cytotechnology, 3, 133 (1990)].
After introducing […] of the plasmids prepared as described above or 4 μg of pAMo (control plasmid) per 1.0×10^6 to 1.6×10^6 cells (200 μl) by electroporation method, the cells were suspended in 8 ml of RPMI1640 media and then cultured in a CO2 incubator for 24 hours at 37° C.
After culturing, the medium was supplemented with G418 (manufactured by GIBCO BRL) to 0.5 mg/ml followed by culturing for another 10 to 14 days, thereby obtaining transformed cells.
Indirect fluorescent antibody staining using the anti-Lewis x sugar chain antibody (PM-81) was performed as follows.
About 1×10^6 transformed cells were added to a microtube (1.5 ml: manufactured by Eppendolf) and then the cells were collected by centrifugation (550×g, 7 minutes).
The cells were washed with 0.9 ml of A-PBS, suspended by adding 20 μl of the anti-Lewis x sugar chain antibody (PM-81) that had been diluted with A-PBS to about 10 μg/ml, and then allowed to react for 1 hour at 4° C. […]
After the reaction, the cells were washed once with 0.9 ml of A-PBS, and then suspended in 0.6 ml of A-PBS, followed by the analysis using a fluorescence activated cell sorter. […]

B1: Fuc-TIX: human Fuc-TIX, 359 amino acids (SEQ ID NO:2), α1,3-fucosyltransferase expressed from pAMo-FT9 in Namalwa cells (protein)
chain: MTSTSKGILRPFLIVCIILGCFMACLLIYIKPTNSWIFSPMESASSVLKMKNFFSTKTDYFNETTILVWVWPFGQTFDLTSCQAMFNIQGCHLTTDRSLYNKSHAVLIHHRDISWDLTNLPQQARPPFQKWIWMNLESPTHTPQKSGIEHLFNLTLTYRRDSDIQVPYGFLTVSTNPFVFEVPSKEKLVCWVVSNWNPEHARVKYYNELSKSIEIHTYGQAFGEYVNDKNLIPTISACKFYLSFENSIHKDYITEKLYNAFLAGSVPVVLGPSRENYENYIPADSFIHVEDYNSPSELAKYLKEVDKNNKLYLSYFNWRKDFTVNLPRFWESHACLACDHVKRHQEYKSVGNLEKWFWN
modifications: human
With B1, the “synthesis of the Lewis x sugar chain in transformed cells” value is recorded as “can synthesize” and the “synthesis of the Lewis y sugar chain in transformed cells” value is “can synthesize”.
